Target: T1, human His-Bub3 full-length recombinant protein (human, UniProt O43684 1-328)
T1 construct: Bub3, human, full-length recombinant protein; also called Recombinant His-Bub3; source: bought: Abcam (ab139802)
Assay: pull-down; recombinant His-Bub3 incubated with GST, GST-NKAP and its deletion mutants; 50 mM Tris–HCl pH 7.5, 150 mM NaCl, 1 mM EDTA, 0.3 mM dithiothreitol, 0.1% NP-40; overnight at 4 °C; bound protein by immunoblot
Details: both partners purified

T1 sequence (O43684 whole entry): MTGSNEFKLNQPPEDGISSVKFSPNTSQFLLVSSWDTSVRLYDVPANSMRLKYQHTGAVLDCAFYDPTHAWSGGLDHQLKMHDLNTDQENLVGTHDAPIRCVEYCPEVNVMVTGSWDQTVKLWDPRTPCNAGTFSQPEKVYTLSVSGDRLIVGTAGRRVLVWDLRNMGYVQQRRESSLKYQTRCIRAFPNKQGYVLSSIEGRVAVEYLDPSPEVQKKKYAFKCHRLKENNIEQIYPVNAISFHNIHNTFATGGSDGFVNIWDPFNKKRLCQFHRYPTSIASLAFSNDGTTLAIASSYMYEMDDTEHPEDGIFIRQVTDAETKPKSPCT

Row | binding result | Binder
1 | binds | GST-NKAP deletion mutant aa 1–138 (domain or fragment, human, UniProt Q8N5F7 1-138, looked up, The text names the region; source: E. coli DH5α, purified (glutathione Sepharose 4B)) MAPVSGSRSPDREASGSGGRRRSSSKSPKPSKSARSPRGRRSRSHSCSRSGDRNGLTHQLGGLSQGSRNQSYRSRSRSRSRERPSAPRGIPFASASSSVYYGSYSRPYGSDKPWPSLLDKEREESLRQKRLSERERIG
2 | binds | GST-NKAP deletion mutant aa 139–276 (domain or fragment, human, UniProt Q8N5F7 139-276, looked up, The text names the region; source: E. coli DH5α, purified (glutathione Sepharose 4B)) ELGAPEVWGLSPKNPEPDSDEHTPVEDEEPKKSTTSASTSEEEKKKKSSRSKERSKKRRKKKSSKRKHKKYSEDSDSDSDSETDSSDEDNKRRAKKAKKKEKKKKHRSKKYKKKRSKKSRKESSDSSSKESQEEFLEN
